Source: paper PMC10878513, “SRPK2 Mediates HBV Core Protein Phosphorylation and Capsid Assembly via Docking Interaction” (PLOS Pathogens, 2024)
Residue numbers refer to the chain shown, from its start. In names and notes the source's numbering stands.

Tests used:
[1] = target: the molecule itself; assay: SEC; without ATP; proteins in disassembly buffer (1.5 M GuHCl), GuHCl removed by dialysis against reassembly buffer; analytical Superdex 200 10/300 GL; peak fractions by SDS-PAGE
[2] = target: the molecule itself; assay: SEC; SRPK2ΔS1/CpWT complex supplemented with 5 mM MgCl2 and 0.1 mM ATP; analytical Superdex 200 10/300 GL; void-volume peak also imaged by negative-stain EM
[3] = target: T1, His-tagged SRPK1WT (UniProt Q96SB4 1-655); assay: MST; 200 nM N-terminally His-tagged SRPK1/2 labelled with RED-tris-NTA as target; GST-CpY132A as ligand in 2-fold serial dilution from 20 μM to 0.61 nM; room temperature; Monolith NT.115, MST power 40%; conditions: both partners purified
T1 construct: serine-arginine protein kinase 1 (SRPK1), wild type; Labelled on the His tag with RED-tris-NTA for MST; also called wild-type SRPK1; source: recombinant, purified; not shown: His tag, N-terminal, kept

[4] = target: T2, His-tagged SRPK2WT (full-length SRPK2) (UniProt P78362 1-688); assay: as above; conditions: both partners purified
T2 construct: serine-arginine protein kinase 2 (SRPK2), full length, wild type; Cloned in pET-15b; Labelled on the His tag with RED-tris-NTA for MST; also called His-SRPK2WT; wild-type SRPK2; source: E. coli BL21(DE3)pLysS, purified (Ni-NTA, SEC); not shown: His tag, N-terminal, kept
T2 sequence (P78362 whole entry): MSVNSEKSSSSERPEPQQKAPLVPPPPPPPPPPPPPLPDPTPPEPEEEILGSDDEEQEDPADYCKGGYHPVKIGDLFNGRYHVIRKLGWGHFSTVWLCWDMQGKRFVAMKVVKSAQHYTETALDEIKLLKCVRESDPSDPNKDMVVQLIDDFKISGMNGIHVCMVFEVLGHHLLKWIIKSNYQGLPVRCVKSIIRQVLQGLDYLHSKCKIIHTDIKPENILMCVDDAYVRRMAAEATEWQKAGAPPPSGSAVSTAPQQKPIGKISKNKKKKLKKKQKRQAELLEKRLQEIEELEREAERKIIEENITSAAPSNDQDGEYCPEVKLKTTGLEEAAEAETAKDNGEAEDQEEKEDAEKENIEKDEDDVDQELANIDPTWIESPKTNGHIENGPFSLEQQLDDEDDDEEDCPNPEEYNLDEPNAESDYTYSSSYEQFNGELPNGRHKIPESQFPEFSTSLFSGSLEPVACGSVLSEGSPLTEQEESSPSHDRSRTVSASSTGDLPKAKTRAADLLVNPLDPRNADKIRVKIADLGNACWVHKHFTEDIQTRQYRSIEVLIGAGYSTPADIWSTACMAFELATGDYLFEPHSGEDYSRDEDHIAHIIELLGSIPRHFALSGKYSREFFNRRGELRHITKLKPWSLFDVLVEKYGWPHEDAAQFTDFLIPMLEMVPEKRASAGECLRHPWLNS

T1 sequence (Q96SB4 whole entry): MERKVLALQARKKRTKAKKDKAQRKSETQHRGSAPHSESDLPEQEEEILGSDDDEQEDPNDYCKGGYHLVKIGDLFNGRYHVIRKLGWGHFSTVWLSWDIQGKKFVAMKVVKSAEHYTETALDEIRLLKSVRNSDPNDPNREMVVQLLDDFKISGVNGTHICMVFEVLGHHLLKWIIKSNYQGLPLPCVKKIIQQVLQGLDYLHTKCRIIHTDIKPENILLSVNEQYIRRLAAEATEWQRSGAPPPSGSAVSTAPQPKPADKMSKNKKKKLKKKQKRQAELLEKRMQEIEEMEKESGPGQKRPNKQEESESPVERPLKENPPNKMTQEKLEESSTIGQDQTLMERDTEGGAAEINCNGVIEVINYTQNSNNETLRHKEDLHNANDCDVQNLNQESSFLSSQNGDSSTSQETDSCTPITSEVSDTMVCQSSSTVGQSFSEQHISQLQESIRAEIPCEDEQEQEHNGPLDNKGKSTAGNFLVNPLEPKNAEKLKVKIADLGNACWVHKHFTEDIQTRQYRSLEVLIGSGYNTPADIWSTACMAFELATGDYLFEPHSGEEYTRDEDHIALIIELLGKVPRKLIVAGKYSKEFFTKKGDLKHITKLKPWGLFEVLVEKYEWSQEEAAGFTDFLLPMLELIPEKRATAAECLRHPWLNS

B1: His-tagged CpWT (wild-type hepatitis B core protein) (natural protein)
chain: MDIDPYKEFGATVELLSFLPSDFFPSVRDLLDTASALYREALESPEHCSPHHTALRQAILCWGELMTLATWVGNNLEDPASRDLVVNYVNTNVGLKIRQLLWFHISCLTFGRETVLEYLVSFGVWIRTPPAYRPPNAPILSTLPETTVVRRRDRGRSPRRRTPSPRRRRSPSPRRRRSQSRESQC
notes: Hepatitis B virus core protein (Cp), subtype adw2, full length, wild type; Kept as a dimer in GuHCl; assembles into capsids (about 35 nm, typical of T = 4) when GuHCl or urea is dialysed away; The His tag is seen as extra density at the 3-fold vertices of the capsid maps; Cloned in pET-15b; also called His-CpWT; CpWT dimer; not shown: His tag, N-terminal, kept
binding result [1]: binds

B2: CpWT phosphorylated by SRPK2ΔS1 (after addition of ATP/Mg2+) (natural protein)
chain: B1 chain
modifications: phosphorylated by SRPK2ΔS1 with ATP/Mg2+; sites and extent not stated for this sample
notes: Hepatitis B virus core protein (Cp), subtype adw2, full length, wild type; also called phosphorylated Cp; capsid formed after the addition of ATP/Mg2+; source: E. coli BL21(DE3)pLysS, purified; SRPK2ΔS1/CpWT complex supplemented with 5 mM MgCl2 and 0.1 mM ATP
binding result [2]: binds

B3: GST-tagged CpY132A (hepatitis B core protein with the mutation Y132A) (natural protein)
chain: B1 chain with Y132A
notes: Hepatitis B virus core protein (Cp), subtype adw2, full length (assembly domain 1-149, ARD 150-185); Cloned in pGEX-4T-2; also called GST–CpY132A; GST-CpY132A; source: E. coli BL21(DE3)pLysS, purified (glutathione resin); not shown: GST, N-terminal, kept
Kd [3]: 83.6 nM | Kd [4]: 101 nM
